Columns and labels:
mUCP2 promoter = experiment: NHR-promoter luciferase screen, mUCP2 promoter; type: cell-based, mouse; details: for Luc. act., normalized to lacZ / Normalized Luc. act., normalized to control: mUCP2 promoter reporter, co-transfected HR, with or without its ligand; for Normalized Luc. act., normalized to control: relative to control; for luciferase activity normalized to lacZ activity and to a control, mUCP2: mUCP2 promoter-luciferase, CV-1 cells, NHR +/- ligand, control = 1.00
How it was run: (§1)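 CV-1 cells were co-transfected with 50 ng NHR (homodimer or NHR/RXR heterodimer), 100 ng promoter-luciferase construct and 50 ng LacZ. Luciferase was normalized to LacZ and to a no-NHR/no-ligand control.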

hTNFa promoter = experiment: NHR-promoter luciferase screen, hTNFa promoter; type: cell-based, human; details: for Luc. act., normalized to lacZ / Normalized Luc. act., normalized to control: TNFa promoter, HR component without or with ligand; for hTNFa promoter reporter activity: transcription factor +/- ligand, control = 1.00
How it was run: as §1

RevErba promoter = experiment: NHR-promoter luciferase screen, RevErba (RVRa) promoter; type: cell-based; design: key to mRevErba promoter reporter activity / Normalized Luc. act., normalized to control: luciferase activity normalized to lacZ and to control (no NHR/ligand); details: for Luc. act., normalized to lacZ / Normalized Luc. act., normalized to control / normalized Luc. act. on a logarithmic scale (column without head, Table 33) / negative reciprocal of normalized Luc. act. (fold repression; Table 33): RVRa promoter; for Luc. act., normalized to lacZ / Normalized Luc. act., normalized to control: HR component without or with ligand; for normalized Luc. act. on a logarithmic scale (column without head, Table 33): log10 of activity normalized to control; for mRevErba promoter reporter activity: transcription factor +/- ligand, control = 1.00; for negative reciprocal of normalized Luc. act. (fold repression; Table 33): given only where activity is below control
How it was run: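 CV-1 cells co-transfected with NHR (pcDNA3.1, C-terminal V5H6 tag) as homodimer or RXR heterodimer, RevErbα promoter–luciferase reporter and LacZ transfection control; ligand added where applicable. Luciferase normalized to LacZ and to no-NHR/no-ligand control.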

hIRF7 promoter = experiment: NHR-promoter luciferase screen, hIRF7 promoter; type: cell-based, human; details: for Normalized Luc. act., normalized to control / Luc. act., normalized to lacZ: IRF7 promoter reporter; for Normalized Luc. act., normalized to control: HR without or with its ligand, relative to control; for Luc. act., normalized to lacZ: hormone receptor (HR) without or with its ligand; for hIRF7 promoter reporter activity: transcription factor +/- ligand, control = 1.00
How it was run: as §1

hG6PD promoter = experiment: NHR-promoter luciferase screen, hG6PD promoter; type: cell-based, human; details: for Luc. act., normalized to lacZ / Normalized Luc. act., normalized to control: G6PD promoter reporter, co-transfected HR, without or with its ligand; for Normalized Luc. act., normalized to control: relative to control; for luciferase activity normalized to lacZ activity and to a control, hG6PD: hG6PD promoter-luciferase, CV-1 cells, NHR +/- ligand, control = 1.00
How it was run: as §1

hCYP3A4 promoter = experiment: NHR-promoter luciferase screen, hCYP3A4 promoter; type: cell-based, human; details: for Luc. act., normalized to lacZ / Normalized Luc. act., normalized to control: CYP3A4 promoter, HR/ligand component; for hCYP3A4 promoter reporter activity: transcription factor +/- ligand, control = 1.00
How it was run: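 CV-1 cells co-transfected with NHR homodimer or NHR/RXR heterodimer (pcDNA3.1, C-terminal V5H6 tag), promoter-luciferase construct and LacZ transfection control. Orphan receptors screened without ligand. Luciferase normalized to LacZ and to no-NHR/no-ligand control.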

Molecule	Luc. act., normalized to lacZ (mUCP2 promoter)	Normalized Luc. act., normalized to control (mUCP2 promoter)	luciferase activity normalized to lacZ activity and to a control, mUCP2 (mUCP2 promoter)	Luc. act., normalized to lacZ (hTNFa promoter)	Normalized Luc. act., normalized to control (hTNFa promoter)	hTNFa promoter reporter activity (hTNFa promoter)	Luc. act., normalized to lacZ (RevErba promoter)	Normalized Luc. act., normalized to control (RevErba promoter)	normalized Luc. act. on a logarithmic scale (column without head, Table 33) (RevErba promoter)	mRevErba promoter reporter activity (RevErba promoter)	Normalized Luc. act., normalized to control (hIRF7 promoter)	Luc. act., normalized to lacZ (hIRF7 promoter)	hIRF7 promoter reporter activity (hIRF7 promoter)	Luc. act., normalized to lacZ (hG6PD promoter)	Normalized Luc. act., normalized to control (hG6PD promoter)	luciferase activity normalized to lacZ activity and to a control, hG6PD (hG6PD promoter)	Luc. act., normalized to lacZ (hCYP3A4 promoter)	Normalized Luc. act., normalized to control (hCYP3A4 promoter)	hCYP3A4 promoter reporter activity (hCYP3A4 promoter)	negative reciprocal of normalized Luc. act. (fold repression; Table 33) (RevErba promoter)
ERR3: Estrogen Related Receptor γ (NR3B3, ERRg), cDNA driver (protein, UniProt P62508 1-458, looked up) Estrogen-related receptor …: MDSVELCLPESFSLHYEEELLCRMSNKDRHIDSSCSSFIKTEPSSPASLTDSVNHHSPGGSSDASGSYSSTMNGHQNGLDSPPLYPSAPILGGSGPVRKLYDDCSSTIVEDPQTKCEYMLNSMPKRLCLVCGDIASGYHYGVASCEACKAFFKRTIQGNIEYSCPATNECEITKRRRKSCQACRFMKCLKVGMLKEGVRLDRVRGGRQKYKRRIDAENSPYLNPQLVQPAKKPYNKIVSHLLVAEPEKIYAMPDPTVPDSDIKALTTLCDLADRELVVIIGWAKHIPGFSTLSLADQMSLLQSAWMEILILGVVYRSLSFEDELVYADDYIMDEDQSKLAGLLDLNNAILQLVKKYKSMKLEKEEFVTLKAIALANSDSMHIEDVEAVQKLQDVLHEALQDYEAGQHMEDPRRAGKMLMTLPLLRQTSTKAVQHFYNIKLEGKVPMHKLFLEMLEAKV	193.4	1.8	1.76	2705.8	2.8	2.75	123.1	4.4	0.64	4.40	2.1	55.2	2.10	63.7	1.7	1.70	4.5	1.0	1.02	
ERR2: Estrogen Related Receptor β (NR3B2, ERRb), cDNA driver (protein, UniProt O95718 1-433, looked up) Steroid hormone receptor ERR2: MSSDDRHLGSSCGSFIKTEPSSPSSGIDALSHHSPSGSSDASGGFGLALGTHANGLDSPPMFAGAGLGGTPCRKSYEDCASGIMEDSAIKCEYMLNAIPKRLCLVCGDIASGYHYGVASCEACKAFFKRTIQGNIEYSCPATNECEITKRRRKSCQACRFMKCLKVGMLKEGVRLDRVRGGRQKYKRRLDSESSPYLSLQISPPAKKPLTKIVSYLLVAEPDKLYAMPPPGMPEGDIKALTTLCDLADRELVVIIGWAKHIPGFSSLSLGDQMSLLQSAWMEILILGIVYRSLPYDDKLVYAEDYIMDEEHSRLAGLLELYRAILQLVRRYKKLKVEKEEFVTLKALALANSDSMYIEDLEAVQKLQDLLHEALQDYELSQRHEEPWRTGKLLLTLPLLRQTAAKAVQHFYSVKLQGKVPMHKLFLEMLEAKV	185.1	1.7	1.68	1655.6	1.7	1.68	42.3	1.5	0.18	1.51	2.3	60.5	2.30	59.1	1.6	1.58	15.5	3.5	3.49	
CTF1: COUP-TF1 (NR2F1), cDNA driver (protein, UniProt P10589 1-423, looked up) COUP transcription factor 1: MAMVVSSWRDPQDDVAGGNPGGPNPAAQAARGGGGGAGEQQQQAGSGAPHTPQTPGQPGAPATPGTAGDKGQGPPGSGQSQQHIECVVCGDKSSGKHYGQFTCEGCKSFFKRSVRRNLTYTCRANRNCPIDQHHRNQCQYCRLKKCLKVGMRREAVQRGRMPPTQPNPGQYALTNGDPLNGHCYLSGYISLLLRAEPYPTSRYGSQCMQPNNIMGIENICELAARLLFSAVEWARNIPFFPDLQITDQVSLLRLTWSELFVLNAAQCSMPLHVAPLLAAAGLHASPMSADRVVAFMDHIRIFQEQVEKLKALHVDSAEYSCLKAIVLFTSDACGLSDAAHIESLQEKSQCALEEYVRSQYPNQPSRFGKLLLRLPSLRTVSSSVIEQLFFVRLVGKTPIETLIRDMLLSGSSFNWPYMSIQCS	67.1	0.6	0.61	728.5	0.7	0.74	18.5	0.7	−0.18	0.66	0.9	24.8	0.94	39.7	1.1	1.06	2.6	0.6	0.59	−1.51
CTF2: COUP-TF2 (NR2F2), cDNA driver (protein, UniProt P24468 1-414, looked up) COUP transcription factor 2: MAMVVSTWRDPQDEVPGSQGSQASQAPPVPGPPPGAPHTPQTPGQGGPASTPAQTAAGGQGGPGGPGSDKQQQQQHIECVVCGDKSSGKHYGQFTCEGCKSFFKRSVRRNLSYTCRANRNCPIDQHHRNQCQYCRLKKCLKVGMRREAVQRGRMPPTQPTHGQFALTNGDPLNCHSYLSGYISLLLRAEPYPTSRFGSQCMQPNNIMGIENICELAARMLFSAVEWARNIPFFPDLQITDQVALLRLTWSELFVLNAAQCSMPLHVAPLLAAAGLHASPMSADRVVAFMDHIRIFQEQVEKLKALHVDSAEYSCLKAIVLFTSDACGLSDVAHVESLQEKSQCALEEYVRSQYPNQPTRFGKLLLRLPSLRTVSSSVIEQLFFVRLVGKTPIETLIRDMLLSGSSFNWPYMAIQ	90.4	0.8	0.82	1014.3	1.0	1.03	27.2	1.0	−0.01	0.97	1.0	25.6	0.97	43.9	1.2	1.17	2.7	0.6	0.61	−1.027
